Results published in patent US6033847.

Experiments:
[1] = target: CDK4-cyclin D2 holoenzyme complex (Mus musculus (Mouse)) (UniProt P30285)
[2] = target: CDK6-cyclin D2 holoenzyme complex (Mus musculus (Mouse)) (UniProt P30280)

pRb kinase activity (fold less efficient) [1]	pRb kinase activity (fold less efficient) [2]	Substance
> 30	> 30	GST-ANK6 (GST fused to the MAD3 subdomain containing only the five ankyrin repeats, amino acids 73-242) (from UniProt P08515)
> 30	> 30	GST-MAD3 (GST fused to mouse IkB (MAD3)) (from UniProt Q9Z1E3)
